Measurements from patent US11814447B2, “Peptide ligands for binding to EphA2” (BICYCLERD LIMITED, priority 2018, dated 2023).
Starred links: 1 amine or outer side, 2 acyl side, 3 side chain; linkers in the order of their positions; H or OH if unused. Positions of bridges follow the written chain, without caps; N, C: chain ends. Non-standard residues stand in square brackets, D forms with d. Primed or numbered codes have the meaning given here. No end group written: not given here. TBMB′ = 1,3,5-tris(bromomethyl)benzene, 1,3,5-tris(methylene)benzene core, three thioethers to Cys; 1Nal = N[C@@H](Cc1cccc2ccccc12)C(=O)O; TBMB = c1c(C[*:1])cc(C[*:3])cc1C[*:2]; Gly(cPent) = N[C@H](C(=O)O)C1CCCC1; hArg = N=C(N)NCCCC[C@H](N)C(=O)O; Tle = CC(C)(C)[C@H](N)C(=O)O; Aib = CC(C)(N)C(=O)O; βAla = NCCC(=O)O; Sar = CNCC(=O)O

Legend:
[1] = biological target: Human EphA2 (Ecto) (Human) (UniProt P29317); test: FP competition, tracer Compound 18
Human EphA2 (Ecto) (Human), sequence (P29317 24-537): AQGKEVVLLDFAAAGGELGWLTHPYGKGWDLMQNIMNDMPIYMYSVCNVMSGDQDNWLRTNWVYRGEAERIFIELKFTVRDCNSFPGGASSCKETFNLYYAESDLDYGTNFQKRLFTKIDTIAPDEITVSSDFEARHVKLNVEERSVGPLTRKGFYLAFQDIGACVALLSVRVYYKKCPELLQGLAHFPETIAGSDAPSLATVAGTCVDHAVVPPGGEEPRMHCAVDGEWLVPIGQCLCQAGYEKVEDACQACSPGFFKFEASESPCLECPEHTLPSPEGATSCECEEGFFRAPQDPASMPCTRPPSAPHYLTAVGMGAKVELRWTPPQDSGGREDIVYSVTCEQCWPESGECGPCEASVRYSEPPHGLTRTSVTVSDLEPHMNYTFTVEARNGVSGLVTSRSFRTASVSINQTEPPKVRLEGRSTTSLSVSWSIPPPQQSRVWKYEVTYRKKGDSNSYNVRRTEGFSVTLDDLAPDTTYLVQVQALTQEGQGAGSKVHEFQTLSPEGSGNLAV

[2] = biological target: T1, Human EphA2 (Ecto) (Human, UniProt P29317 24-537); test: FP competition, tracer Compound 66
T1 construct: extracellular domain
T1 sequence (P29317 24-537): as above

[3] = biological target: T1, Human EphA2 (Ecto); test: FP competition, tracer Compound 18
Description: (§1) Peptides without a fluorescent tag were tested in competition with a peptide with a fluorescent tag and a known Kd (Table 2). Peptides were diluted to an appropriate concentration in assay buffer as described in the direct binding assay with a maximum of 5% DMSO, then serially diluted 1 in 2. […] Measurements were conducted as for the direct binding assay, however the gain was determined prior to the first measurement. Data analysis was in Systat Sigmaplot version 12.0 where the mP values were fit to a user defined cubic equation to generate a Ki value: […]

[4] = biological target: T1, Human EphA2 (Ecto); test: FP competition, tracer Compound 18; remark: listed apart in the source
Description: as §1

Binder | Ki [1] [nM] | also measured
[Sar][Sar]ACAWGPFWCPVNRPGC (linker 4-11-18 via TBMB) [Bicycle Compound 286] | – | Ki [2]: 886 nM
[Sar][Sar]ACPWGPFWCAVNRPGC (linker 4-11-18 via TBMB) [Bicycle Compound 291] | – | Ki [3]: > 1000 nM
[Sar][Sar]ACPWGPFWCPVNAPGC (linker 4-11-18 via TBMB) [Bicycle Compound 293] | – | Ki [2]: 711 nM
Ac-[Sar][Sar]A[dD]VTCPWGPAWCPVNRPGC (linker 7-14-21 via TBMB′) [Bicycle Compound 173] | – | Ki [4]: 6.69 nM; Ki [3]: 6.69 nM
[Sar][Sar]ACPW[dA]PFWCPVNRPGC (linker 4-11-18 via TBMB) [Bicycle Compound 296] | – | Ki [2]: 1000 nM
[βAla][Sar][Sar][Sar][Sar][Sar][Sar][Sar][Sar][Sar][Sar]H[dD]VPC[Aib]WGP[hArg]WCP[Tle]N[hArg]P[dD]C (linker 16-23-30 via TBMB) [Bicycle Compound 247] | 29.7 | –
[βAla][Sar][Sar][Sar][Sar][Sar][Sar][Sar][Sar][Sar][Sar]H[dD][Gly(cPent)]PC[Aib]WG[Aib]FWCP[Tle]NR[Aib][dD]C (linker 16-23-30 via TBMB) [Bicycle Compound 275] | 15.9 | –
ADVHCPWAPFWCPVNRPGCA (linker 5-12-19 via TBMB) [Bicycle Compound 151] | – | Ki [4]: 394 nM; Ki [3]: 394 nM
[Sar][Sar]ACPWGPFWCPVARPGC (linker 4-11-18 via TBMB) [Bicycle Compound 101] | – | Ki [2]: 265 nM
Ac-[Sar][Sar]H[dD]VTCP[1Nal]G[Aib]F[1Nal]CP[Tle]NR[Aib]GC (linker 7-14-21 via TBMB) [Bicycle Compound 285] | 1.21 | –
[βAla][Sar][Sar][Sar][Sar][Sar][Sar][Sar][Sar][Sar][Sar]H[dD]VPCP[1Nal]G[Aib][hArg][1Nal]CP[Tle]NR[Aib][dD]C (linker 16-23-30 via TBMB) [Bicycle Compound 250] | 1.48 | –
[Sar][Sar]ACPWG[dA]FWCPVNRPGC (linker 4-11-18 via TBMB) [Bicycle Compound 297] | – | Ki [2]: 1500 nM
[Sar][Sar]ACPWGPFWCPANRPGC (linker 4-11-18 via TBMB) [Bicycle Compound 292] | – | Ki [2]: 954 nM
[βAla][Sar][Sar][Sar][Sar][Sar][Sar][Sar][Sar][Sar][Sar]H[dD]VPCP[1Nal]G[Aib][hArg][1Nal]CP[Tle]NR[Aib]GC (linker 16-23-30 via TBMB) [Bicycle Compound 249] | 1.38 | –
[βAla][Sar][Sar][Sar][Sar][Sar][Sar][Sar][Sar][Sar][Sar]H[dD]VPCPWG[Aib]FWCP[Tle]N[hArg]P[dD]C (linker 16-23-30 via TBMB) [Bicycle Compound 271] | 3.66 | –

More lines, main results first:

Ki [1] [nM] | Binder | also measured
3.99 | [βAla][Sar][Sar][Sar][Sar][Sar][Sar][Sar][Sar][Sar][Sar]H[dD]VPCPWGP[hArg]WCP[Tle]N[hArg]P[dD]C (linker 16-23-30 via TBMB) [Bicycle Compound 272] | –
1.93 | [βAla][Sar][Sar][Sar][Sar][Sar][Sar][Sar][Sar][Sar][Sar]H[dD]VPCP[1Nal]G[Aib][hArg][1Nal]CP[Tle]N[hArg]P[dD]C (linker 16-23-30 via TBMB) [Bicycle Compound 251] | –
28.4 | [βAla][Sar][Sar][Sar][Sar][Sar][Sar][Sar][Sar][Sar][Sar]H[dD]VPC[dA][1Nal]G[Aib]F[1Nal]CP[Tle]N[hArg]P[dD]C (linker 16-23-30 via TBMB) [Bicycle Compound 248] | –
0.59 | [βAla][Sar][Sar][Sar][Sar][Sar][Sar][Sar][Sar][Sar][Sar]H[dD][Gly(cPent)]TCP[1Nal]G[Aib]F[1Nal]CP[Tle]NR[Aib]GC (linker 16-23-30 via TBMB) [Bicycle Compound 279] | –
0.85 | Ac-[Sar][Sar]H[dD]VPCP[1Nal]G[Aib]F[1Nal]CP[Tle]N[hArg]PGC (linker 7-14-21 via TBMB) [Bicycle Compound 253] | –
1.55 | [βAla][Sar][Sar][Sar][Sar][Sar][Sar][Sar][Sar][Sar][Sar]H[dD]VPCP[1Nal]G[Aib]FWCP[Tle]N[hArg]P[dD]C (linker 16-23-30 via TBMB) [Bicycle Compound 265] | –
0.91 | [βAla][Sar][Sar][Sar][Sar][Sar][Sar][Sar][Sar][Sar][Sar]H[dD]VPCP[1Nal]G[Aib]F[1Nal]CP[Tle]N[hArg][Aib][dD]C (linker 16-23-30 via TBMB) [Bicycle Compound 259] | –
0.46 | [βAla][Sar][Sar][Sar][Sar][Sar][Sar][Sar][Sar][Sar][Sar]H[dD][Gly(cPent)]PCP[1Nal]G[Aib]F[1Nal]CP[Tle]NR[Aib]GC (linker 16-23-30 via TBMB) [Bicycle Compound 278] | –
0.37 | [βAla][Sar][Sar][Sar][Sar][Sar][Sar][Sar][Sar][Sar][Sar]H[dD]VPCP[1Nal]G[Aib]F[1Nal]CP[Tle]NRPGC (linker 16-23-30 via TBMB) [Bicycle Compound 252] | –
1.11 | [βAla][Sar][Sar][Sar][Sar][Sar][Sar][Sar][Sar][Sar][Sar]H[dD]VPCPWG[Aib]F[1Nal]CP[Tle]N[hArg]P[dD]C (linker 16-23-30 via TBMB) [Bicycle Compound 269] | –
1.07 | [βAla][Sar][Sar][Sar][Sar][Sar][Sar][Sar][Sar][Sar][Sar]H[dD]VPCP[1Nal]G[Aib]F[1Nal]CP[Tle]N[hArg]PGC (linker 16-23-30 via TBMB) [Bicycle Compound 257] | –
0.64 | [βAla][Sar][Sar][Sar][Sar][Sar][Sar][Sar][Sar][Sar][Sar]H[dD][Gly(cPent)]TCP[1Nal]G[Aib]F[1Nal]CP[Tle]N[hArg]P[dD]C (linker 16-23-30 via TBMB) [Bicycle Compound 280] | –
31.4 | [βAla][Sar][Sar][Sar][Sar][Sar][Sar][Sar][Sar][Sar][Sar]H[dD]VPC[Aib]WGP[hArg]WCP[Tle]N[hArg]P[dD]C (linker 16-23-30 via TBMB) [Bicycle Compound 246] | –
